According to patent publication US20260263364A1, “OSTEOCLAST-DERIVED MICROVESICLES AND METHODS OF PROMOTING BONE REGENERATION” (The United States Government as represented by the …, priority 2023, published 2026):

Tested on: osteoclastic cells
Assay: Release of soluble EfnB2 into CM by osteoclastic cells (Western blots)
Assay type: cell-based
Excerpt: Regarding the EfnB2, EfnB2 on the plasma membrane of osteoclasts binds the EphB4 receptor on the cell surface of nearby osteoprogenitors to trigger the EfnB2-EphB4 bidirectional signaling, which on the one hand suppresses osteoclastic resorption through activation of the reverse signaling of EfnB2 in osteoclasts and on the other hand upregulates the EphB4 forward signaling in osteoblasts to stimulate osteoblast maturation and activity. However, this bidirectional signaling mechanism requires direct cell-cell contact between osteoclasts and osteoprogenitors. Given the fact that very few osteoblasts or progenitors are present at the remodeling site that could make direct contact with the resorbing osteoclast, this cell-cell contact-dependent bidirectional mechanism is unlikely a major mechanism for the coupled bone formation under normal situations. It also could not be responsible for the soluble osteoanabolic activity of osteoclasts. […] Treatment with EfnA4-fc or PTH increased its releases each by ~75% and the large majority of the released EfnB2 was associated with the MV fraction. As an initial test of the possibility that EfnB2 is a candidate for an osteoanabolic component, it was tested whether the osteogenic activity of CM or that of MV could be blocked by pretreatment with anti-EfnB2 antibody. […]

B1: PTH: used to increase bone turnover / stimulate bone remodeling (protein, UniProt P01270 32-115, looked up)
Parathyroid hormone: SVSEIQLMHNLGKHLNSMERVEWLRKKLQDVHNFVALGAPLAPRDAGSQRPRKKEDNVLVESHEKSLGEADKADVNVLTKAKSQ
modifications: Parathyroid hormone
notes: used to increase bone turnover / stimulate bone remodeling
For B1, the “increase of release of soluble EfnB2” value was ~ 75%.
